Results on five molecules are retold here after patent US20200115458A1 (CALIFORNIA INSTITUTE FOR BIOMEDICAL RESEARCH, published 2020).

For experiment [1], the target named is T1, human ASGPR (asialoglycoprotein receptor) (human, UniProt P07306 62-291).
T1 construct: also called human ASPGR; ASGPR antigen (human)
T1 sequence: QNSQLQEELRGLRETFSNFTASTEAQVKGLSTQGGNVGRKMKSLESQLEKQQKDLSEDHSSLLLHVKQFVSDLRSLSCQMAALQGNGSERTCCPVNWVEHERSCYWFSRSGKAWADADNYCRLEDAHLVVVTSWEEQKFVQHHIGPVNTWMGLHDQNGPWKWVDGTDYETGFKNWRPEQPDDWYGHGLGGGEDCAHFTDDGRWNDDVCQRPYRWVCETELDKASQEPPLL
Kind of experiment: ELISA (FIG. 16). (In general: ELISA stands for enzyme-linked immunosorbent assay.)

Experiment [2] has as its target T2, rat ASGPR (rat, UniProt P02706 61-284).
T2 construct: also called ASGPR antigen (rat)
T2 sequence: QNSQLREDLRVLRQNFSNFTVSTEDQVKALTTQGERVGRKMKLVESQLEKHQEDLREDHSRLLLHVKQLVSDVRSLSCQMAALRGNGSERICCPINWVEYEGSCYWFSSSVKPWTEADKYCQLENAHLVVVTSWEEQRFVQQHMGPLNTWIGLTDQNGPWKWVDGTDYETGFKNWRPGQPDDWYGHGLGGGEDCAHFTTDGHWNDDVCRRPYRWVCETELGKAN
Kind of experiment: ELISA (FIG. 16).

Experiment [3] has as its target T3, cynomolgus monkey ASGPR (cynomolgus monkey, UniProt P07306 62-291 (human entry)).
T3 construct: also called cyno monkey ASGPR; cyno monkey ASPGR
T3 chain: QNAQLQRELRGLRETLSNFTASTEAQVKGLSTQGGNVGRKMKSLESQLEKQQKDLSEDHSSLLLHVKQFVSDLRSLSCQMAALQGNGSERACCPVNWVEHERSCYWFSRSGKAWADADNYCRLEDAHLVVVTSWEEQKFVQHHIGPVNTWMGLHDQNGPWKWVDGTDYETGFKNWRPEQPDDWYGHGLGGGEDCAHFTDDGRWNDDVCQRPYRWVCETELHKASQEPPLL
In words: ELISA (FIG. 16).

Experiment [4] concerns the target T1, human ASGPR (asialoglycoprotein …). In words: ELISA (FIG. 37). As to the method: (§1) The activity of anti-ASGPR within Ins1-L3-Ab4 Fab and Ins1-L3-Ab5 Fab fusion proteins for human, rat, and cyno monkey ASGPR was tested by ELISA assay as shown in FIGS. 37-39 as generally described in Example 3. 100 ng/well ASGPR antigen (human, rat, and cyno monkey) was coated on 96-well plate in PBS 4° C. over night, blocked with 2% milk/PBST (0.5% Tween-20 in PBS) at room temperature for 1 hr, and incubated with the fusion proteins at 4 nM, 20 nM, 100 nM, and 500 nM in 2% milk/PBST at room temperature for 2 hr. Wells were then washed with PBST for 4-5 times, incubated with mouse anti-insulin (MA5-12037, ThermoFisher Scientific) in 2% milk/PBST at room temperature for 2 hr, washed with PBST for 4-5 times, incubated with goat anti-mouse IgG-HRP (115-035-008, Jackson ImmunoResearch) for 30 min, and washed with PBST for 4-5 times The plates were developed with QuantaBlu fluorogenic peroxidase substrate (Life technologies, 15169), and quantified using Spectramax fluorescence plate reader with excitation at 325 nm and emission at 420 nm.
(§2) The figures illustrate that anti-ASGPR antibodies fused to insulin therapeutic peptides retain activity for their antigen ASGPR as determined by ELISA assay.

Experiment [5] addresses T2, rat ASGPR. In words: ELISA (FIG. 38). As to the method: as §1, §2
Experiment [6] concerns the target T3, cynomolgus monkey ASGPR. Kind of experiment: ELISA (FIG. 39). On the procedure: as §1, §2
Experiment [7] deals with T1, human ASGPR (asialoglycoprotein …). Kind of experiment: ELISA, coated ASGPR antigen (FIG. 3). On the procedure:
(§3) The activity of anti-ASGPR within the Ins1-L1-Ab1L IgG (SEQ ID NOS: 79, 29) and Ins1-L1-Ab1H IgG (SEQ ID NOS: 78, 30) fusion proteins for human ASGPR was tested by ELISA assay. Briefly, 100 ng/well ASGPR antigen (human, rat and cyno monkey) was coated on 96-well plate in PBS at 4° C. overnight; the wells were blocked with 2% milk/PBST (0.5% Tween-20 in PBS) at room temperature for 1 hr; antibodies were added in concentrations of 10 nM, 1 nM and 0.1 nM in 2% milk/PBST at room temperature for 2 hr; the wells were washed with PBST 4-5 times; anti-light chain kappa (sigma A7164) in 2% milk/PBST was added and the plate incubated at room temperature for 1 hr; the wells were washed with PBST 4-5 times; and the reaction was developed with QuantaBlu fluorogenic peroxidase substrate (Life technologies, 15169), and quantified using a Spectramax fluorescence plate reader with excitation at 325 nm and emission at 420 nm. […] The figures illustrate that anti-ASGPR antibodies fused to insulin therapeutic peptides retain activity for their antigen ASGPR.

Experiment [8] addresses T2, rat ASGPR. Kind of experiment: ELISA, 100 ng/well coated ASGPR antigen, antibodies at 10, 1 and 0.1 nM, anti-kappa detection. As to the method:
as §3

B1: Ins1-L3-Ab4 Fab (Fab)
light: FVNQHLCGSDLVEALYLVCGERGFFYTDPTGGGPRRGIVEQCCHSICSLYQLENYCNGGGEAAAKEAAAKEAAAKAGGEIVLTQSPGTLSLSPGERATLSCSASSTISSNYLHWYQQKPGQAPRLLIYRTSDLASGIPDRFSGSGSGTDFTLTISRLEPEDFAVYYCQQGSSIPFTFGQGTKLEIKRTVAAPSVFIFPPSDEQLKSGTASVVCLLNNFYPREAKVQWKVDNALQSGNSQESVTEQDSKDSTYSLSSTLTLSKADYEKHKVYACEVTHQGLSSPVTKSFNRGEC
heavy: QVQLVQSGAEVKKPGASVKVSCKASGYTFTNYWMHWVRQAPGQGLEWMGRIDLNSGGTNYNYAQKFQGRVTMTRDTSISTAYMELSRLRSDDTAVYYCARYYGSSWFAYWGQGTLVTVSSASTKGPSVFPLAPSSKSTSGGTAALGCLVKDYFPEPVTVSWNSGALTSGVHTFPAVLQSSGLYSLSSVVTVPSSSLGTQTYICNVNHKPSNTKVDKKVEPKSCDKTHT
notes: also called Ins1-L3-Ab4L (Fab); Ins1-L3-Ab4L and Ab4H(Fab)
Turning to B1, the binding result in experiment [1], in experiment [2] and in experiment [3] was “binds” in each case.

B2: Ins1-L3-Ab4L IgG (antibody)
light: FVNQHLCGSDLVEALYLVCGERGFFYTDPTGGGPRRGIVEQCCHSICSLYQLENYCNGGGEAAAKEAAAKEAAAKAGGEIVLTQSPGTLSLSPGERATLSCSASSTISSNYLHWYQQKPGQAPRLLIYRTSDLASGIPDRFSGSGSGTDFTLTISRLEPEDFAVYYCQQGSSIPFTFGQGTKLEIKRTVAAPSVFIFPPSDEQLKSGTASVVCLLNNFYPREAKVQWKVDNALQSGNSQESVTEQDSKDSTYSLSSTLTLSKADYEKHKVYACEVTHQGLSSPVTKSFNRGEC
heavy: QVQLVQSGAEVKKPGASVKVSCKASGYTFTNYWMHWVRQAPGQGLEWMGRIDLNSGGTNYNYAQKFQGRVTMTRDTSISTAYMELSRLRSDDTAVYYCARYYGSSWFAYWGQGTLVTVSSASTKGPSVFPLAPSSKSTSGGTAALGCLVKDYFPEPVTVSWNSGALTSGVHTFPAVLQSSGLYSLSSVVTVPSSSLGTQTYICNVNHKPSNTKVDKKVEPKSCDKTHTCPPCPAPPVAGPSVFLFPPKPKDTLMISRTPEVTCVVVDVSHEDPEVKFNWYVDGVEVHNAKTKPREEQYNSTYRVVSVLTVLHQDWLNGKEYKCKVSNKGLPSSIEKTISKAKGQPREPQVYTLPPSRDELTKNQVSLTCLVKGFYPSDIAVEWESNGQPENNYKTTPPVLDSDGSFFLYSKLTVDKSRWQQGNVFSCSVMHEALHNHYTQKSLSLSPGK
notes: Insulin immunoglobulin fusion protein: Ins1-L3-Ab4L light chain fusion paired with the full humanized heavy chain Ab4H; also called Ins1-L3-Ab4 IgG; Ins1-L3-Ab4L and Ab4H
Consider B2, for which the binding result in experiment [1], in experiment [2] and in experiment [3] was “binds” in each case.

B3: Ins1-L3-Ab5 Fab (Fab)
light: FVNQHLCGSDLVEALYLVCGERGFFYTDPTGGGPRRGIVEQCCHSICSLYQLENYCNGGGEAAAKEAAAKEAAAKAGGEIVLTQSPGTLSLSPGERATLSCSASSTISSNYLHWYQQKPGQAPRLLIYRTSDLASGIPDRFSGSGSGTDFTLTISRLEPEDFAVYYCQQGSSIPFTFGQGTKLEIKRTVAAPSVFIFPPSDEQLKSGTASVVCLLNNFYPREAKVQWKVDNALQSGNSQESVTEQDSKDSTYSLSSTLTLSKADYEKHKVYACEVTHQGLSSPVTKSFNRGEC
heavy: QVQLVQSGAEVKKPGASVKVSCKASGYTFTNYWMHWVRQAPGQGLEWMGWIDLNSGGTNYNYAQKFQGRVTMTRDTSISTAYMELSRLRSDDTAVYYCARYYGSSWFAYWGQGTLVTVSSASTKGPSVFPLAPSSKSTSGGTAALGCLVKDYFPEPVTVSWNSGALTSGVHTFPAVLQSSGLYSLSSVVTVPSSSLGTQTYICNVNHKPSNTKVDKKVEPKSCDKTHT
notes: As Ins1-L3-Ab4 Fab but with the Ab5H Fab heavy chain (Ab4H mutated at position 50); also called Ins1-L3-Ab5L (Fab)
On to B3, for which the binding result in experiment [4], in experiment [5] and in experiment [6] was “binds” throughout.

B4: Ins1-L1-Ab1L IgG (antibody)
light: FVNQHLCGSDLVEALYLVCGERGFFYTDPTGGGPRRGIVEQCCHSICSLYQLENYCNGGGGSETVLTQSPTTMATSPGEKITITCSASSTISSNYLHWYQQKPGFSPKLLIYRTSDLASGVPTRFSGSGSGTSYSLTIGTMEAEDVATYYCQQGSSIPFTFGSGTKLEINRADTAPTVSIFPPSSEQLTSGGASVVCFLNNFYPKDINVKWKIDGSERQNGVLNSWTDQDSKDSTYSMSSTLTLTKDEYERHNSYTCEATHKTSTSPIVKSFNRNEC
heavy: QVQLQQPGAELVKPGASVKLSCKASGYTFTNYWMHWVKQRPGRGLEWIGRIDLNSGGTNYNYNEKFKTKATLTVDKPSSTAYMQLSSLTSEDSAVYYCANYYGSSWFAYWGQGTTLTVSSAKTTAPSVYPLAPVCGDTTGSSVTLGCLVKGYFPEPVTLTWNSGSLSSGVHTFPAVLQSDLYTLSSSVTVTSSTWPSQSITCNVAHPASSTKVDKKIEPRGPTIKPCPPCKCPAPNLLGGPSVFIFPPKIKDVLMISLSPIVTCVVVDVSEDDPDVQISWFVNNVEVHTAQTQTHREDYNSTLRVVSALPIQHQDWMSGKEFKCKVNNKDLPAPIERTISKPKGSVRAPQVYVLPPPEEEMTKKQVTLTCMVTDFMPEDIYVEWTNNGKTELNYKNTEPVLDSDGSYFMYSKLRVEKKNWVERNSYSCSVVHEGLHNHHTTKSFSRTPGK
notes: also called Ins-L1-Ab1L IgG; Ins1-L1-AbL IgG
Take B4: the binding result in experiment [7] and in experiment [8] was “binds” throughout.

B5: Ins1-L1-Ab1H IgG (antibody)
heavy: FVNQHLCGSDLVEALYLVCGERGFFYTDPTGGGPRRGIVEQCCHSICSLYQLENYCNGGGGSQVQLQQPGAELVKPGASVKLSCKASGYTFTNYWMHWVKQRPGRGLEWIGRIDLNSGGTNYNYNEKFKTKATLTVDKPSSTAYMQLSSLTSEDSAVYYCANYYGSSWFAYWGQGTTLTVSSAKTTAPSVYPLAPVCGDTTGSSVTLGCLVKGYFPEPVTLTWNSGSLSSGVHTFPAVLQSDLYTLSSSVTVTSSTWPSQSITCNVAHPASSTKVDKKIEPRGPTIKPCPPCKCPAPNLLGGPSVFIFPPKIKDVLMISLSPIVTCVVVDVSEDDPDVQISWFVNNVEVHTAQTQTHREDYNSTLRVVSALPIQHQDWMSGKEFKCKVNNKDLPAPIERTISKPKGSVRAPQVYVLPPPEEEMTKKQVTLTCMVTDFMPEDIYVEWTNNGKTELNYKNTEPVLDSDGSYFMYSKLRVEKKNWVERNSYSCSVVHEGLHNHHTTKSFSRTPGK
light: ETVLTQSPTTMATSPGEKITITCSASSTISSNYLHWYQQKPGFSPKLLIYRTSDLASGVPTRFSGSGSGTSYSLTIGTMEAEDVATYYCQQGSSIPFTFGSGTKLEINRADTAPTVSIFPPSSEQLTSGGASVVCFLNNFYPKDINVKWKIDGSERQNGVLNSWTDQDSKDSTYSMSSTLTLTKDEYERHNSYTCEATHKTSTSPIVKSFNRNEC
notes: also called Ins-L1-Ab1H IgG
Take B5: the binding result in experiment [7] and in experiment [8] was “binds” throughout.
